# Source: US20180072770A1, “Influenza Virus Binding Peptides” (priority 2014, published 2018)
# No end group written: not given here.
# Assays:
# [1] = target: T1, hemagglutinin of influenza A virus X31 (A/Aichi/2/68 H3N2) (influenza A virus A/Aichi/2/68 H3N2 (X31)), P03437
# [2] = target: T1, hemagglutinin of influenza A virus X31 …; experiment: cell-based or functional assay
# [3] = target: T1, hemagglutinin of influenza A virus X31 …; experiment: SPR competition, virus preincubated with peptide, immobilised fetuin
# [4] = target: T1, hemagglutinin of influenza A virus X31 …; remark: listed apart in the source
Binder,IC50 [1] [µM],"Hemagglutination inhibition (IC50, HAI) [2] [µM]","Mean Ki(HAI), hemagglutination inhibition assay, human erythrocytes [2] [µM]","fold lower IC50,RB than the reference peptide SEQ ID NO:1 [3] [fold]",Kd [4] [µM]
"KKKKFYGYDVFF (not fully specified (C-terminus)) [peptide with SEQ ID NO:28, N-terminal (Lys)4, C-terminal amide]",20,18,31.9,4.5,
"KKKKFYDYDVFY (not fully specified (C-terminus)) [reference peptide with SEQ ID NO:1 (FYDYDVFY), N-terminal (Lys)4, C-terminal amide]",90,163,235,,59
